# Assay: soluble on expression in E. coli; label from the status in PepcDB or PDB records
row,Sequence,soluble on expression in E. coli
1,MKIGIIGATGKAGSRILKEALDRGHEVTAIVRNAAKITEENVKVLEKDVFSLTSNDLQAFDVVVNAFGAPAGHDHLHVDAGNVLIEAMKGAPNTKLVVVGGAGSLFVDEEKTTRVFETPGFPEEYLATAQNQGKNLEILQQTNDITWTFISPSALFALGKRTGSYKAGKDNLLVNAKGDSYVSYEDFAVAALDEIENPKHVNERFTVVSEAE,not soluble
2,MKLNFSLYRYNPDVDNKPYMKDYILEVEEGSDMMVLDALILLKEQDPSIAFRRSCREGVCGSDGLNMNGKNGLACITPLSALKGDKIVIRPLPGLPVVRDLIVDMTQFYDNYAKVKPFLIADDALPPSRENLQSPEERAHLDGLYECIMCACCTTSCPSFWWNPDKFIGPAGLLAAYRWLIDSRDTATDERLSNLDDAFSVFRCHGIMNCVSVCPKGLNPTKAIGHIKSMLINRSV,not soluble
3,MSLKENNMDKAHIGFIGLGLMGAAMVECLQKAGHAVTVLGNRDRTGVEAALARGATEAAHARAVAEASDIVMLCMGTSAQVESRIYGDDGVLAGTREGQVVIDFGTSLPASTRRIGGDLAGKGATYLDAPLGRTPAHARDGLLNIMCSGDKATFDRVKPVLHTLGENVFHLGALGNGHTIKLINNCYSMTTACAMAEAFAIADATGIERQALYNVMAAGPNHSGMMDFINAYANGGRIDLAFTVANAAKDVGYYRQMATEMGLFSRMSIAADATLREARDGGDGGLMVPQMIDWMVRHLGEEGHHHHHH,soluble
4,MSLKSFNEIIMKVKSKEMKKVAVAVAQDEPVLEAVRDAKKNGIADAILVGDHDEIVSIALKIGMDVNDFEIVNEPNVKKAALKAVELVSTGKADMVMKGLVNTATFLRSVLNKEVGLRTGKTMSHVAVFETEKFDRLLFLTDVAFNTYPELKEKIDIVNNSVKVAHAIGIENPKVAPICAVEVINPKMPSTLDAAMLSKMSDRGQIKGCVVDGPLALDIALSEEAAHHKGVTGEVAGKADIFLMPNIETGNVMYKTLTYTTDSKNGGILVGTSAPVVLTSRADSHETKMNSIALAALVAGNKEGHHHHHH,soluble
5,MRVSCVYATASRWGGPPVASEVRGDAAISTTPDAAPGLAARRRRILFVAEAVTLAHVVRPFALAQSLDPSRYEVHFACDPRYNQLLGPLPFRHHAIHTIPSERFFGNLTQGRFYAMRTLRKYVEADLRVLDEIAPDLVVGDLRISLSVSARLAGIPYIAIANAYWSPYAQRRFPLPDVIWTRLFGVRLVKLLYRLERPLLFALQCMPLNWVRRRHGLSSLGWNLCRIFTDGDHTLYADVPELMPTYDLPANHEYLGPVLWSPAGKPPTWWDSLPTDRPIVYATLGTSGGRNLLQLVLNALAELPVTVIAATAGRSDLKTVPANAFVADYLPGEAAAARSAVVVCNGGSLTTQQALVAGVPVIGVAGNLDQHLNMEAVERAGAGVLLRTERLKSQRVAGAVMQVISRSEYRQAAARLADAFGRDRVGFPQHVENALRLMPENRPRTWLAS,not soluble
6,MEALGKTILASDDINSIKKNLAKHIVHLNEENEKYRNEIKLLKKNKDINNQILFTLNKTEISSDMIDSLFMQTKNVIIQVTNKKY,not soluble
7,SNAPLLLGKKAPNLYMTDTTGTYRYLYDVQAKYTILFFWDSQCGHCQQETPKLYDWWLKNRAKGIQVYAANIERKDEEWLKFIRSKKIGGWLNVRDSKNHTDFKITYDIYATPVLYVLDKNKVIIAKRIGYENLDDFLVQYEKSLKTK,soluble
8,LVLQLQINRNPVLFDFNLQLKTNNFANQTSFDELFNEKTNPLNWQFFSKLKVNHLVYEGNDITQLANTLLQSQFNVLQLDLNKSIYRLNLNAMAQRFEHDWVQPLYAKRTQAKIAY,not soluble
9,MGHHHHHHSHMDFSHWPHVLPLEPGGCIDFQTENSSRHCLVTYRPDKNHTTIRSVLMEMSYRLDDTGNPICSCQPVHTFFGGPTCKLLTKNAIFQSPENDGNILVCTGDEAANSALLWDAASGSLLQDLRTDQPVLDICPFEVNRNSYLATLTEKMVHIYKWE,not soluble
10,FNWDRAMYSLITYFLAYKVIDIVIQGVDESKSAFIISRYYEEIGAEIMEQLGKGVTYLDATGGYSGDVRKVVFVIVSRFEEVKVKAILDEIDPDAFLAVGGSMSEVRGGKLMNTKTPHL,not soluble
11,GHHHHHHAIAENLYFQSSRNPEVLWAQRSDKVYLTVALPDAKDISVKCEPQGLFSFSALGAQGERFEFSLELYGKIMTEYRKNVGLRNIIFSIQKEERSWWTRLLKSEEKPAPYIKVDWNKWCDEDEEVNSETASDDESAFVNQDSESSDDDGLLYLPDLEKARNK,soluble
12,SNANRDSLFNDPNAPVLGNPEGDVTVVEFFDYNCPYCRRAMAEVQGLVDADPNVRLVYREWPILGEGSDFAARAALAARQQGKYEAFHWALMGMSGKANETGVLRIAREVGLDTEQLQRDMEAPEVTAHIAQSMALAQKLGFNGTPSFVVEDALVPGFVEQSQLQDAVDRARKAA,soluble
13,MAHHHHHHMFSRHSLWVPAASHFPKFVEHFNRFLKASPHNVELQKALCYKEEETQLLIIQDPKARQPIFAMAFPFTVTSALCDGSRMGLGTFTSLVDTTTSLHVAAALLPTNDMHVSVSLQTNCVQPITAGEKVVMISRMDKFGKRLAFLSARLLRLDDVYENTVAPTAGRELEELERQLSQYQTLANGTHVKCILTGKS,not soluble
14,MENKKSFFHLHLISDSTGETLMSAGRAVSAQFHTSMPVEHVYPMIRNQKQLAQVIDLIDKEPGIVLYTIVDQQLAEFLDLRCHAIGVPCVNVLEPIIGIFQTYLGAPSRRRVGAQHALNADYFARIEALNFAMDHDDGQMPETYDDADVVIIGISRTSKTPTSIYLANRGIKTANIPVVPNVPLPESLYAATRPLIVGLVATSDRISQVRENRDLGTTGGFDGGRYTDRATIMEELKYARALCARNNWPLIDVTRRSIEETAAAILALRPRTRLEHHHHHH,soluble
15,MSLKIAQATARVEAFALVRPYTIALRHVGTVENVIVQLQTASGLIGLGAASAAADVTGESDQACREALLGGAIGWLVGEDIRELPKLCRRLGERMAGRPAARAAVDIALHDLLAQHLGVPLVAMLGRVHTGLPTSITIGIKPLDETLAEAREYLGRGFRILKVKTGLDLEGDIERLARLREQVGDAVHLRVDPNQGYSIAEVEQFVRRTAHLFLEFLEQPIPAGDIAALRALPPDIRLRIAADESLLDERDALKLLTPSPACGIFNIKLMKCGGIRPALAIAGLAEIAGIELMWGCMDESIVSITAALHAALACPATRYLDLDGSLDLARDVVTGGFVLKDGYLSTREAPGLGVQLLSEGHHHHHH,not soluble
16,MSLNTRQLLSVGIDIGTTTTQVIFSRLELVNRAAVSQVPRYEFIKREISWQSPVFFTPVDKQGGLKEAELKTLILEQYHAAGIEPESVDSGAIIITGESAKTRNARPAVMALSQSLGDFVVASAGPHLESVIAGHGAGAQTLSEQRLCRVLNIDIGGGTANYALFDAGKISGTACLNVGGRLLETDSHGRVVYAHKPGQMIVDECFGAGTDARSLTGAQLVQVTRRMAELIVEVIDGTLSPLAQALMQTGLLPAGVTPEIITLSGGVGECYRHQPADPFCFADIGPLLATALHDHPRLREMNVQFPAQTVRATVIGAGAHTLSLSGSTIWLEGVQLPLRNLPVAIPIDETDLVGAWQQALIQLDLDPKTDAYVLALPASLPVRYAAVLTVINALVDFVARFPNPHPLLVVAGQDFGKALGMLLRPQLQQLPLAVIDEVIVRAGDYIDIGTPLFGGSVVPVTVKSLAFPSEGHHHHHH,soluble
17,MSSKDKKPSKPSSSRGGIRTLSDLNRRSGPDSDSDSDGPQEYYTGGEKSGMLVQDPSKKDDVDEIFNQARQLGAVEGPLEPPPSSRSFTGTGRLLSGENVPTGNQQPEPVVHNIVFWSNGFTIDDGPLRKLDDPENASFLEVNDFHSIRKSECPKELEPADRRAPVHVNLMRKEEKCPERQKRRVSFQGVGRTLGGSNEGSGSSSPVAPDSAPIPIQTEPAPSQSLVIDETVPTTSIQLRLADGTRLVAKFNHHHTVNDIRGFIDSSRPGASLNYQLQTMGFPPKPLTDLTQTIEEAGLANSVVLQKF,soluble
18,MGSDKIHHHHHHMRLDLFFDRLLSTEGDKLATVAKNTILEPSVAYFDFTASGLAYRTIEERIASILPRYANTHSEVTNHALFMTELYDEARANLKRHMDLDEEFALFPCGNGSTGAIKKFQELMGLYLPPRTQKRLSLTPDPALFPVVFVGPYEHHSNEVSYRESPCEVVRIPLDSRGLVDMGVLRAKLGEYQGREIITSFSLASNVTGIIIPYEEISALIRKAGGIVTFDMATASSYMNIPSKFFDAAFFSPHKLLGGVGSCGLLAMRKSLIDSTLPPTFAGGGTVTYVSRIDQYYREDPEYREDAGTPGVLQLLRASLAYQLRNEVGLEFIAKRKKELCAPLVEALRKMERVKIYGDIESCNRLGIFAINIEGISPYEVCQRLSREYLIETRAGCSCAGPYGHDLLGLKDDGLFASRPGWVRISVHYSHSLEQIERLLGALEEIARD,not soluble
19,MGSDKIHHHHHHMPKNRDAARASLENLYRIFTVPEAPDSTLGAIDQAIAGDVAGFLQTHIVAIERPLEEIEADFSSFSIPEEPTYVSEYTEFVKENLVAHSVHTASPAFVGHMTSALPYFMLPLARLMTALNQNVVKVETSKAFTPMERQVLAMLHHLVYGRNDDFYPQWIHNSQHALGAFCSGGTLANVTALWVARNRLFAPDGEFRGIAQEGLARALKHRGADGIAVLVSERGHYSLGKAADLLGIGRDDLIKIKTDANNRIDLKALREECRRLQDRNTLPLALVGIAGTTETGNVDPLEAMADLAQELGCHFHVDAAWGGPTLFSDRHRHLLRGIERADSVTIDGHKQLYVPMGAGMVVFKDPTALSAIEHHANYILRHGSKDLGSHTLEGSRPGKAMLVHAGFSIIGRKGYELLIDMGIERARTFADMIQRHPDFELISEPELNILTYRYCPPAIQQALTDATAQQRAAINGLLDQVCQLLQKYQREAGKTFVSRTRLHVARHDMELTVLRVVLANPLTTDEILEAVLAEQCEIVRLPEIQALLRQAEELCPGLAKAV,not soluble
20,MSLKVGISMFNILQSTQLSSNTFDFWLEAPRIATHAQAGQFVILRIDEKGERIPLTIAETNPQAGSIRIIFQVIGKTTAALSQLKTSDSLLDITGPLGMPTEVKQYGTVMVVGGGVGIAAIYPIIKALKEAGNRVITILGARTAELVLLQEECRRYSDELIITTDDGSLGKKGLVTEAMEEVIARESVACSWAIGPSIMMKFCTLTAEKHQLPIYVSLNPIMIDGTGMCGGCRVTVDGTMKFACVDGPEFKGNEVNWDEFINRMKQYQEEEAVCFTDRLKEQVEKNGEGGSHHHHHH,soluble
21,MGSDKIHHHHHHMDQFDRTPLMTADSEALATARRVLATEARALDSLATSLGDAFLKAVTLIEGAPGRVVVTGMGKSGHVARKIAATMASTGCPAFYVHPAEASHGDLGMVTRDDAVVALSNSGETPELSDVIAYTRRFEIPLIGITSRDGSTLAAASDVALVLPPNPEACPMGLAPTTSTTLMLALGDALAVTLLERKGFTAADFQVFHPGGKLGQRLLKVTDLMHGGDGLPLVGTEASMADVLLVMTAKSLGCAGVIDSGGKLAGVLTDGDLRRHMSPDLLTAKAAEVMTASPRTVPPNLLAAEALRQMNERSITSLFVVESDGRPVGVLHVHDCLRAGLA,not soluble
22,MNRIYLYLLIVLILAGCSSPGGRYDMSDDQAPDTPLSVEHIEDAHPQYEPYSFGGNKDYNLRGKSYRIIKNPKGFTESGKASWYGKKFHGHLTSNGEIYDMYSMTAAHKTLPIPSYVKVTNTDNGKSTVVRVNDRGPFHDGRIIDLSYAAAYKIGVVQAGTANVRIEVITVDKPTKPRPKSKNNALEYVIQVVSSQHIERVRTLAQNLGQNLSAPSFVESTNNTHRLFLGPFTDDDLTQTLLEQVKSAGYDSAFIKTINKRAK,not soluble
